Source: patent publication US20230192830A1 (VOYAGER THERAPEUTICS, published 2023)

Columns and labels:
[1] = molecular target: T1, enriched paired helical filament tau protein (ePHF) (human, UniProt P10636 2-758); assay: direct ELISA, ePHF coated
T1 construct: Sarkosyl-insoluble filaments isolated from human frontal cortical tissue; aggregated, isoform mix and phosphorylated residues not specified; also called sarkosyl insoluble tau
Description: (§1) These candidate antibodies were analyzed for binding to ePHF and specificity for ePHF over wild type tau by direct ELISA.
(§2) For direct ePHF and wildtype tau ELISA, plates were first coated with ePHF or wild type tau. Antigen solutions were prepared in PBS and 50 µL were pipetted into each well. Plates were covered and incubated for one hour at 37° C. or overnight at 4° C. Plates were then washed and blocked by addition of 150 µl of blocking buffer to each well and incubated one hour at room temperature. Plates were then washed before addition of serially diluted candidate antibody samples prepared in blocking buffer. Detection of candidate antibody binding was carried out by washing plates and adding a solution of enzyme-labeled secondary antibody in blocking buffer to each well. Secondary antibody binding was detected by addition of substrate and spectrophotometric analysis of resulting reaction product.

wild type tau = wild type tau (UniProt P10636-8 1-441, limits assumed); assay: direct ELISA, wild type tau coated
Description: as §1, §2

iPHF = iPHF (UniProt P10636-8 1-441); assay: Octet, epitope binning of Example 4
Description: Variable domain nucleic acid sequences from antibodies obtained from immunizations described above were used to prepare recombinant mouse IgG antibodies for iPHF affinity measurement and epitope binding competition analysis. Studies were carried out by Octet (ForteBio, Menlo Park, CA) analysis.
For epitope binding competition analysis, a process also referred to as “epitope binning,” candidate antibodies were analyzed using a sandwich assay format, wherein a first “capture” antibody is attached to the Octet biosensor before antigen and a second antibody are sequentially introduced and biosensor readings are used to determine whether one or both antibodies bind to each antigen. […] PT3, IPN002, or C10.2 antibodies were used as capture antibodies and immobilized on AMC biosensor tips as described above. Biosensor tips were then washed and blocked in 10 µg/ml MOPC. After a further wash, biosensor capture antibodies were associated with iPHF. Candidate antibodies were then analyzed for binding to iPHF. MOPC (non antigen-specific control) and PT3, IPN002, or C10.2 antibodies (in each case matching the biosensor antibody) were used as directly competing controls.

[2] = molecular target: T1, enriched paired helical filament tau …; assay: cell-based or functional assay
[3] = molecular target: T1, enriched paired helical filament tau …; assay: follow up analysis, method not stated

T1 sequence (P10636 other isoform, or with tags, fused parts or gaps limits assumed): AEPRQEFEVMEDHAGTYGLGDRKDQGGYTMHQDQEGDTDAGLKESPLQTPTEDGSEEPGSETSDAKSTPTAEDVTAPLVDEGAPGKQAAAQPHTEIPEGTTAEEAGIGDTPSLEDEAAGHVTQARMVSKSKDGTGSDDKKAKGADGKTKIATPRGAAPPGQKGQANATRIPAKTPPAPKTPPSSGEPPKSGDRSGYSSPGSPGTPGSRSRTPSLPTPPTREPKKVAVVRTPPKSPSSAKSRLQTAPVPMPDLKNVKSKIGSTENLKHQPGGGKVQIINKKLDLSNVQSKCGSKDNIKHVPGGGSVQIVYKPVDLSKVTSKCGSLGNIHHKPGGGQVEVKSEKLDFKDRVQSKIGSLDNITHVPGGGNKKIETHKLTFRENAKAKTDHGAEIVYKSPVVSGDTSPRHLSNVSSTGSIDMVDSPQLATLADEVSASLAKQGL
Chain of wild type tau (P10636 other isoform, or with tags, fused parts or gaps limits assumed): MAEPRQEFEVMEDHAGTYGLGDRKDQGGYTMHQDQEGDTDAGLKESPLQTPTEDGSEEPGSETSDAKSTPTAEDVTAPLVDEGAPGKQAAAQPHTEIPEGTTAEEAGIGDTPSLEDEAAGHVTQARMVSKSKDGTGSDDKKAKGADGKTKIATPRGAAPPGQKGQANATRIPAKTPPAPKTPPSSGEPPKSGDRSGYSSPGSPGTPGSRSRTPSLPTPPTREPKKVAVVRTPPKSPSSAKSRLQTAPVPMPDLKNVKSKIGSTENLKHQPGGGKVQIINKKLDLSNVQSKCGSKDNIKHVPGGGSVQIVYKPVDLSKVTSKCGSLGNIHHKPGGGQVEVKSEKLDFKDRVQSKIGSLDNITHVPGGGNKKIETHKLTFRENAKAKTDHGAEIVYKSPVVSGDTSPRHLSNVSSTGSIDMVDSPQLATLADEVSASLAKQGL

| Binder | EC50 [1] [nM] | Average IC50 (nM), tau aggregation inhibition, immunodepletion assay with tau RD Biosensor cells [2] [nM] | also measured |
| --- | --- | --- | --- |
| V00018 (antibody, mouse IgG1, V domains shown) VH: QVQLQQPGADLVRPGSSVKLSCKASGYTFTRSWMHWVKQRPIEGLEWIGNIDPSDSEAHYNQKFKDKATLTVDKFSNTAYMQLSSLTSEDSAVYYCARWDDFYVAYWGQGTLVTVSA VL: DIVLTQSPASLAVSLGQRATISCRASKSVSTSGYSYIHWYQQKPGQPPKLLIYLASNLESGVPARFSGSGSGTDFTLNIHPVEEEDAATYYCQHSRELPWTFGGGTKLEIK | 0.718 | – | – |
| V00014 (antibody, mouse IgG1, V domains shown) VH: QAYLQQSGAELVRPGASVKMSCKASGYTFTSYNMHWVKQTPRQGLEWIGAIYPGNGDTSYNQKFKGKATLTVDKSSSTAYMQLSSLTSEDSAVYFCARGGMDYWGQGTSVTVSS VL: DVVMTQTPLSLPVSLGDQASISCRSSQSLVHSNGNTYLHWYLQKPGQSPKLLIYKVSNRFSGVPDRFSGSGSGTDFTLKISRVEAEDLGVYFCSQSTHVPYTFGGGTKLEIK | – | – | binding result (wild type tau): no binding; binding result (iPHF): no binding |
| V2004 (antibody, mouse IgG1, V domains shown) VH: QVQLQQSGAELARPGASVKLSCKSSGYIFSSYWMQWVKQRPGQGLEWIGAIYPGDGDTRYTPKFKGKATLTADKSSSTAYMQLTSLASEDSAVYYCAKGYSQSFDYWGQGTTLTVSS VL: not shown | – | – | binding result (wild type tau): no binding |
| V0035 (antibody, mouse IgG1, V domains shown) VH: EAQLQQSGAELVRPGSSVKMSCKTSGYTFTSYGINWVKQRPGQGLEWIGYIYIRNGNTAYNEKFKGKATVTSDTSSSTVYMQLSSLTSEDSAIYFCAGTGTSFTYWGQGTLVTVSA VL: not shown | 0.315 | – | – |
| V0034 (antibody, mouse IgG1, V domains shown) VH: EVQLQQSGAELVRPGSSVKMSCKTSGYTFTSYGINWVKQRPGQGLEWVGYIYIRDGNTAYNEKFKGKATVTSDTSSSTVYMQLSSLTSEDSAIYFCAGTGTSFAYWGQGTLVTVSA VL: not shown | 0.351 | – | – |
| V0023 (antibody, mouse IgG1, V domains shown) VH: QVQLQQPGTELVKPGASVKLSCKASGYTFTIFWMHWVKQRPGHGLEWIGKINPNNGGGDYNEKFKSKATLTVDKSSTTAYLQLSSLTSEDSAVYYCARGTGTGAMDYWGQGTSVTVSS VL: DVVMTQTPLSLPVSLGDHASISCRSSQSLVHSNGITHLYWYLQRPGQTPKLLIYRVSNRFSGVPDRFSGSGSGTDFTLKISSVEAEDLGVYFCFQGTHVPRTFGGGTKLEIE | 0.11 | 16.5 | selectivity for ePHF over wild type tau [3]: > 100 fold |
| V0025 (antibody, mouse IgG1, V domains shown) VH: QVQLQQPGTELVKPGASVKLSCKASGFTFTRFWMHWVKQRPGQGLEWIGNINPNNGETNYNEKFKIKAALTVDKSSTTAYMQLSSLTSEDSAVYSCARGTGTGAMDYWGQGTSVTVSS VL: DVVMTQTPLSLPVSLGDQASISCRSSQSLVHSTGNTYLYWYLQKPGQSPKLLIYRVSTRFSGVPDRFSGSGSGTDFTLKINRVEAEDLGVYFCFQGTHVPRTFGGGTKLEIK | 0.098 | – | – |
| V0024 (antibody, mouse IgG1, V domains shown) VH: QVQLQQPGTELVKPGASVKLSCKASGYTFTRFWMHWVKQRPGQGLEWIGNINPNNGGTDNNERFKSKATLTVDRSSSTAYMQLSSLTSEDSAVYYCARGTGTGAMDYWGQGTSVTVSS VL: DVVMTQTPLSLPVSLGDQASISCRSSQSLVHSNGNTHLYWYLQKPGQSPKLLIYRVSSRFSGVPDRFSGSGSGTDFTLKISRVEAEDLGVYFCFQGTHVPRTFGGGTKLEIK | – | 18.6 | – |
| V0022 (antibody, mouse IgG1, V domains shown) VH: QVQLQQPGTELVKPGSSVNLSCKASGFTFTRYWMHWVKERPGHGLEWIGNINPNNGGTDFNEKFKNKATLTVHKSSTTVFIQLSSLTSEDSAVYYCARGTGTGAMDYWGQGTSVTVSS VL: DVVMTQTPLSLPVSLGDQASISCRSSQSLVHNNGITYLYWYLQKPGQSPKLLIYRVSNRFSGVPDRFGGSGSGTDFTLKISRVEAEDLGVYFCFQGTHVPRTFGGGTKLEIK | 0.07 | 18.2 | selectivity for ePHF over wild type tau [3]: > 100 fold |
